From patent publication US6294153A, “Aerosol pharmaceutical formulation for pulmonary and nasal delivery” (Generex Pharmaceuticals, Inc., priority 1999, dated 2001)
Read-outs that look alike come from different tables or passages of the source.

Columns and labels:
[1] = healthy volunteers; 10, 20, 30 units aerosol
From the text: Day-1: 5 puffs of 2 units each (total 10 units)
Day-2: 5 puffs of 4 units each (total 20 units)
Day-1: 5 puffs of 6 units each (total 30 units)

[2] = Method: The vials were then charged with a non-CFC tetrafluoroethane, (134a) propellant with the aid of a Pamasol 2008 semi-automatic gas filling equipment.
The aerodynamic particle size was determined by 8-stage USP Anderson Cascade Impactor-Mark-II (trade mark). The Multistage Cascade Impactor was cleaned with methanol and air-dried at 30° C. Glass fibre filters were placed on the collection plates. Seals were aligned properly and the actuator was attached to the mouthpiece and assembled onto the USP induction port and jet stages. A vacuum pump was connected and air flow rate is set to 28.3 liter/min. The vial was primed by shaking for 10 seconds and actuating twice to waste. […] […] The filters were carefully removed and placed in scintillation vials and sonicated for 15 minutes.

[3] = stage 3, U400, 4 units/actuation
[4] = stage 4, U400, 4 units/actuation
[5] = stage 5, U400, 4 units/actuation
[6] = stage 6, U400, 4 units/actuation
[7] = stage 7, U400, 4 units/actuation
[8] = stage 8, U400, 4 units/actuation

## insulin
[1]
  absorption of insulin through lungs and oropharynx regions: significant absorption
[2]; cascade impactor, most particles
  size of most particles: smaller than 6 microns
[2]; cascade impactor, overall
  particle size (conclusion): about 3 microns
[2]; cascade impactor, indicates deep lung deposition
  droplet size, generally: smaller than 4 microns
[2]; stage 3, 2 units/actuation
  mg (insulin deposited): 0.77 mg
  units (insulin deposited): 10.1 units
[2]; [3]
  mg (insulin deposited): 0.77 mg
  units (insulin deposited): 20.1 units
[2]; stage 4, 2 units/actuation
  mg (insulin deposited): 0.78 mg
  units (insulin deposited): 10.1 units
[2]; [4]
  mg (insulin deposited): 0.78 mg
  units (insulin deposited): 20.1 units
[2]; stage 5, 2 units/actuation
  mg (insulin deposited): 0.81 mg
  units (insulin deposited): 10.0 units
[2]; [5]
  mg (insulin deposited): 0.81 mg
  units (insulin deposited): 20.0 units
[2]; stage 6, 2 units/actuation
  mg (insulin deposited): 0.80 mg
  units (insulin deposited): 10.3 units
[2]; [6]
  mg (insulin deposited): 0.80 mg
  units (insulin deposited): 20.3 units
[2]; stage 7, 2 units/actuation
  mg (insulin deposited): 0.80 mg
  units (insulin deposited): 10.1 units
[2]; [7]
  mg (insulin deposited): 0.80 mg
  units (insulin deposited): 20.1 units
[2]; stage 8, 2 units/actuation
  mg (insulin deposited): 0.79 mg
  units (insulin deposited): 10.1 units
[2]; [8]
  mg (insulin deposited): 0.79 mg
  units (insulin deposited): 20.1 units
[2]; stages 0-2
  insulin deposition: no insulin deposition
